Test [1] deals with CRBN. Nature of the test: Internalization and degradation of CD28-degron-GFP in 293T cells. It counts as cell-based, human. The note with it: 10 μM pomalidomide, 293T cells with biallelic CRBN exon 5 disruption. The procedure: Transduced cells were incubated with a range of Pomalidomide concentrations or DMSO for 20 hours. Cells were analyzed by flow cytometry for eGFP and mCherry fluorescence. 1000 mCherry+ cells were analyzed per sample, and the geometric mean of the per-cell eGFP/mCherry ratio was calculated in Flowjo. In Pomalidomide dose titration studies, the EC50 was calculated by non-linear regression in Prism. Experiments were performed in triplicate. In some cases cell surface protein expression was assayed in parallel with the above reporter assay; cells were stained with anti-CD28-BV421 antibody (BD Biosciences 562613) at a 1:50 dilution in FACS buffer (PBS+2% FCS+2 mM EDTA) for 10 minutes on ice. Cells were washed with FACS buffer and analyzed by flow cytometry.

Test [2] concerns the target CRBN (Homo sapiens, UniProt Q96SW2). Nature of the test: EGFP/mCherry reporter of zinc finger degron sequences, IMiD titration. Type of test: cell-based. Also on record: endogenous in cells. The note with it: HEK239T cells, drug titration, 20 h. As for the experimental part:
A hybrid sequence of two distinct CRBN substrates, IKZF3 and ZFP91, was constructed and examined for activity within an “OFF-switch” system of the instant disclosure. In such experiments, reporter constructs containing zinc finger sequences were expressed in HEK239T cells via lentiviral transduction, after which the cells were treated with a titration of (IMiD) drug concentrations for 20 h. Flow cytometry was used to measure the EGFP/mCherry ratio normalized to the average of three DMSO treated controls. Data shown in FIG. 10 are representative of two experimental replicates (technical replicates=0, experimental replications=2).

In another test the test system is CD19scFv-CD28-IKZF3. Description: BRET, split receptor: membrane-tethered or untethered minCRBN3 paired with CD19scFv-CD28-IKZF3. It counts as cell-based, human. Particulars: 293T cells, 10 μM MG132, 2 hours of drug treatment. The procedure: (§1) 293T cells were co-transfected with pFC14K and pFC32K plasmids expressing IKZF3-HaloTag and CRBN-Nanoluciferase fusion proteins and incubated overnight. Cells were then trypsinized and seeded into 96 well plates, at 40,000 cells per well. The BRET assay was performed per manufacturer's instructions (Promega™). In brief, cells were incubated for 2 hours with varying concentrations of Pomalidomide or DMSO, 10 μM MG132, and 100 nM HaloTag NanoBRET 618 Ligand. NanoBRET Nano-Glo substrate was added and donor (460 nm) and acceptor (618 nm) emission were measured within 10 minutes (EnVision, Perkin Elmer). Mean corrected milliBRET units (mBU) was calculated.
Specific minCRBN-presenting polypeptide tethers to the plasma membrane that were tested included: (1) a CD8/CD28 system in which about 36 amino acids of TMD and cytosolic sequence connected to the co-stimulatory/minCRBN domains of the thereby membrane-tethered polypeptide; (2) a PD1 Y F ITAM/ITSM construct, in which minCRBN was tethered to the plasma membrane via a TMD and cytosolic domain of approximately 100 amino acids in length; and (3) a LYN-CD28 construct, in which membrane tethering was achieved via myristoyl/palmitoylation.
(BRET reads energy transfer from a luciferase to a nearby fluorophore.)

A further test relates to IKZF3aa130-189. Description: BRET assay, dimerization of IKZF3aa130-189 with CRBN or minCRBN variants. The note with it: pomalidomide dose-response. It counts as cell-based, human. The procedure: Specifically, CRBN deletion variants were engineered to retain binding to Pom/IKZF3 but not DDB1/CUL4. Four deletion variants were generated in CRBN that removed the DDB1-binding domain, as shown in the middle image (NTD is the N-terminal domain; LLP1 is Lon-like protease domain 1 (split into LLP1-N and LLP1-C regions); TBD is the Thalidomide binding domain). At middle, BRET assays were performed upon 293T cells harboring bialleleic CRISPR/Cas9 disruption of endogenous CRBN (293T-CRBNΔe5), to assess dimerization between IKZF3aa130-189 and CRBN or minCRBN variants (dose-response data shown are CRBN, minCRBN1, minCRBN2, minCRBN3 and minCRBN4). […] Pomalidomide-dependent dimerization was observed between IKZF3aa130-189-HaloTag and CRBN-Nanoluciferase (NLuc) or minCRBN2-4-NLuc. […] 1 day after transfection, cells were exposed to 1 μM pomalidomide for the number of hours indicated and GFP and mCherry fluorescence was measured by flow cytometry (eGFPmCherry levels were detected as 0.5 or less for the CRBN trace).
as §1
Tested forms of minimal CRBN included minCRBN1, minCRBN2, minCRBN3 and minCRBN4, each of which were aligned against the wild-type CRBN (FIG. 1; all tested minCRBNs lacked the DDB1-binding domain—minCRBN1 comprised amino acids 339-442 of CRBN (including the TBD); minCRBN2 comprised amino acids 317-442 of CRBN (including TBD and an N-terminal extended sequence relative to minCRBN1); minCRBN3 included all CRBN sequence other than amino acids 194-207 (deletion of the DDB1-binding domain); and minCRBN4 included all sequences other than amino acids 187-260 (deletion of the DDB1-binding domain)).

Sequence of CRBN (Homo sapiens, UniProt Q96SW2) (Q96SW2 whole entry): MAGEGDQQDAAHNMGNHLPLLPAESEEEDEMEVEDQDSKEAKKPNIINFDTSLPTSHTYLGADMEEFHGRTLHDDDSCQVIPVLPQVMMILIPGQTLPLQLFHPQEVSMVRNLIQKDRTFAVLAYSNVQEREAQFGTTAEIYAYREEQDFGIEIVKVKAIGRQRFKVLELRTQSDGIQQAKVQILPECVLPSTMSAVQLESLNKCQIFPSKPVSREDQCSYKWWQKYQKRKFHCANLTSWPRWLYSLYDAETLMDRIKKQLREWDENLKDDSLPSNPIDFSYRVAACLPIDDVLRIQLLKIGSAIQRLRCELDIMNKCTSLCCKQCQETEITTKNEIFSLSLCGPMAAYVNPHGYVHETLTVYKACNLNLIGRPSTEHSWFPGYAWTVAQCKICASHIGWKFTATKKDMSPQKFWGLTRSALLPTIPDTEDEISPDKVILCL
Sequence of CD19scFv-CD28-IKZF3 (as listed by the source, one chain of several): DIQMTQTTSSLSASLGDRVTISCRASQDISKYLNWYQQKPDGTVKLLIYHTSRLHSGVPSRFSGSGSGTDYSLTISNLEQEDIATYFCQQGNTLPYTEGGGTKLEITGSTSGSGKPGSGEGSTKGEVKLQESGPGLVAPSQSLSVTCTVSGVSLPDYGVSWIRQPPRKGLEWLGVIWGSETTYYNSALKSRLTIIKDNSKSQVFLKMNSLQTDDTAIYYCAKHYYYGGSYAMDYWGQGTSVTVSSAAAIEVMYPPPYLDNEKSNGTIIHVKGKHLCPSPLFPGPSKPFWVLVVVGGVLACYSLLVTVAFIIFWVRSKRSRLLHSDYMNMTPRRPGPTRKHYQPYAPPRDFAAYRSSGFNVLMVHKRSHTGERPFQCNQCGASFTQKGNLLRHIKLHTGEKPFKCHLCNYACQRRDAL
Sequence of IKZF3aa130-189 (Q9UKT9 130-189 limits assumed, one chain of several): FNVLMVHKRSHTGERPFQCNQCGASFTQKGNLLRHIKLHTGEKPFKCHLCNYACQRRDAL

In the case of “CD28-degron: In frame fusion of full length CD28, a SG linker, and IKZF3 (amino acids 130-189); SEQ ID NO: 82”, the “degradation (normalized GFP levels)” value with CRBN [1] is reported as “no significant decline in normalized GFP levels”.

In the case of “IKZF3/ZFP91: Reverse hybrid, IKZF3 amino acids 146-156 + ZFP91 amino acids 411-422, SEQ ID NO: 33 (FQCNQCGASFTQKASLNWHMKKH)”, the “IMiD sensitivity (EGFP/mCherry ratio normalized to DMSO)” value with CRBN [2] is “minimal IMiD sensitivity/responsiveness”.

In the case of “ZFP91/IKZF3 hybrid: ZFP91 amino acids 400-410 + IKZF3 amino acids 157-168, SEQ ID NO: 32 (LQCEICGFTCRQKGNLLRHIKLH)”, the “IMiD sensitivity (EGFP/mCherry ratio normalized to DMSO)” value with CRBN [2] is “greater IMiD sensitivity than either the ZFP91 degron sequence alone or the IKZF3 degron sequence alone”.

B1: minCRBN3: All CRBN sequence other than amino acids 194-207 (deletion of the DDB1-binding domain), SEQ ID NO: 3 (protein)
chain: AGEGDQQDAAHNMGNHLPLLPESEEEDEMEVEDQDSKEAKKPNIINFDTSLPTSHTYLGADMEEFHGRTLHDDDSCQVIPVLPQVMMILIPGQTLPLQLFHPQEVSMVRNLIQKDRTFAVLAYSNVQEREAQFGTTAEIYAYREEQDFGIEIVKVKAIGRQRFKVLELRTQSDGIQQAKVQILPECVLPSTYDAETLMDRIKKQLREWDENLKDDSLPSNPIDFSYRVAACLPIDDVLRIQLLKIGSAIQRLRCELDIMNKCTSLCCKQCQETEITTKNEIFSLSLCGPMAAYVNPHGYVHETLTVYKACNLNLIGRPSTEHSWFPGYAWTVAQCKICASHIGWKFTATKKDMSPQKFWGLTRSALLPTIPDTEDEISPDKVILCL
B1: the “pomalidomide-dependent interaction with IKZF3 degron split receptor (BRET)” value in the test on CD19scFv-CD28-IKZF3 is “to a significantly lesser extent than any of the various plasma membrane-tethered versions”. The “pomalidomide-dependent dimerization with IKZF3 degron (mBU)” value in the test with IKZF3aa130-189 is reported as “pomalidomide-dependent interactions”.

The values above are taken from patent US12049482B2, “Molecular switch-mediated control of engineered cells” (THE GENERAL HOSPITAL CORPORATION, priority 2017, dated 2024).
